# Key:
# [1] = target: T1, U153 integrase (Listeria phage U153) (UniProt Q8LTD8); experiment: cell_activity
# T1 sequence: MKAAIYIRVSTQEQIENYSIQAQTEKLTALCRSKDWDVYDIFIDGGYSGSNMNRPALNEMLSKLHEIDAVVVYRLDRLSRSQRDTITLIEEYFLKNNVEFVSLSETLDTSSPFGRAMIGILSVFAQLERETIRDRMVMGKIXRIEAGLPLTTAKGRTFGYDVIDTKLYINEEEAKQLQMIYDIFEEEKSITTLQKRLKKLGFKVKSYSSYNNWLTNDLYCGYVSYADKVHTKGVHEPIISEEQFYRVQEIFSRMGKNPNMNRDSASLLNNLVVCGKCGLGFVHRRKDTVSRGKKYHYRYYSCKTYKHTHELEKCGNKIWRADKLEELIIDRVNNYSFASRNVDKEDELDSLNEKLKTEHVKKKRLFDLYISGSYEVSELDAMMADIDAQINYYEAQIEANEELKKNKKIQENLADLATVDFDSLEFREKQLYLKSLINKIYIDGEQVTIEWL
# [2] = target: T2, PSA integrase (Listeria phage PSA) (UniProt Q8W5Y3); experiment: cell_activity; settings: pPL2 in 10403S and EGDe; attB' side unrelated to 4b, attB side 96-97% identical
# T2 sequence: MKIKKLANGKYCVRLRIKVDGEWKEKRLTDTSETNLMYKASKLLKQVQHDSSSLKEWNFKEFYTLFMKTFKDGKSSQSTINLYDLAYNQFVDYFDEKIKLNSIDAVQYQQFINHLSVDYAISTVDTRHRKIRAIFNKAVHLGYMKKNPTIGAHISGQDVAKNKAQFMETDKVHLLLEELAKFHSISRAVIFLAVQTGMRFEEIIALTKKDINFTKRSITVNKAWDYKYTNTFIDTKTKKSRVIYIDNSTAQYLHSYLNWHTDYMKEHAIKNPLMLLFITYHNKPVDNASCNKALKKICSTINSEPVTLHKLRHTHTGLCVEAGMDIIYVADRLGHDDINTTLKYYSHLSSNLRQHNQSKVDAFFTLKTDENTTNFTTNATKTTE
substance,measurement,setting,value
comK-attBB',activity (integrants per donor cell),"[1]; pPL1 integration at comK in DP-L4056, similar frequency in SLCC-5764 and 4b strains, PCR confirmed",0.0002
"tRNAArg-attBB' serotype 1/2 (10403S, EGDe)",activity (integrants per donor cell),[2],0.0002
U153 attPP',activity (integrants per donor cell),"[1]; attPP' partner on pPL1, stable for 100 generations",0.0002

# From patent publication US7425449
